Reference: patent US20100260668A1 (published 2010)

B1: DVD474 (bispecific antibody, human IgG1, kappa)
heavy: not shown
light: DIQMTQSPSSLSASVGDRVTITCRASQVIRRSLAWYQQKPGKAPKLLIYAASNLASGVPSRFSGSGSGTDFTLTISSLQPEDFATYYCQQSNTSPLTFGQGTKVEIKRTVAAPSVFIFPPDIQMTQSPSSLSASVGDRVTITCRASQDVSTAVAWYQQKPGKAPKLLIYSASFLYSGVPSRFSGSGSGTDFTLTISSLQPEDFATTYYCQQSYTGTVTFGQGTKVEIKRTVAAPSVFIFPPSDEQLKSGTASVVCLLNNFYPREAKVQWKVDNALQSGNSQESVTEQDSKDSTYSLSSTLTLSKADYEKHKVYACEVTHQGLSSPVTKSFNRGEC
notes: DVD-Ig; N-term; VD AB071 (VEGF), C-term; VD AB015 (DLL4); HC linker long, LC linker long; also called DVD474H; DVD474L
B2: DVD486 (bispecific antibody, human IgG1, kappa)
heavy: not shown
light: B1 light
notes: DVD-Ig; N-term; VD AB071 (VEGF), C-term; VD AB015 (DLL4); HC linker short, LC linker long; also called DVD486H; DVD486L
B3: DVD490 (bispecific antibody, human IgG1, kappa)
heavy: not shown
light: DIQMTQSPSSLSASVGDRVTITCRASQDVSTAVAWYQQKPGKAPKLLIYSASFLYSGVPSRFSGSGSGTDFTLTISSLQPEDFATYYCQQSYTTPPTFGQGTKVEIKRTVAAPDIQMTQSSSYLSVSLGGRVTITCKASDHINNWLAWYQQKPGNAPRLLISGATSLETGVPSRFSGSGSGKDYTLSITSLQTEDVATYYCQQYWSIPLTFGAGTKLELKRTVAAPSVFIFPPSDEQLKSGTASVVCLLNNFYPREAKVQWKVDNALQSGNSQESVTEQDSKDSTYSLSSTLTLSKADYEKHKVYACEVTHQGLSSPVTKSFNRGEC
notes: HC linker short, LC linker short; also called DVD-Ig DVD490
B4: DVD502 (bispecific antibody, human IgG1, kappa)
heavy: not shown
light: B3 light
notes: HC linker long, LC linker short; also called DVD-Ig DVD502
B5: DVD514 (bispecific antibody, human IgG1, lambda)
heavy: not shown
light: DIQMTQSPSSLSASVGDRVTITCRASQDVSTAVAWYQQKPGKAPKLLIYSASFLYSGVPSRFSGSGSGTDFTLTISSLQPEDFATYYCQQSYTTPPTFGQGTKVEIKRTVAAPQAVVTQESALTTSPGETVTLTCRSSTGAVTTSNYANWVQEKPDHLFTGLIGGTNNRAPGVPARFSGSLIGDKAALTITGAQTEDEAIYFCALWYSNHWVFGGGTKLTVLGQPKAAPSVTLFPPSSEELQANKATLVCLISDFYPGAVTVAWKADSSPVKAGVETTTPSKQSNNKYAASSYLSLTPEQWKSHRSYSCQVTHEGSTVEKTVAPTECS
notes: HC linker short, LC linker short; also called DVD-Ig DVD514
B6: DVD526 (bispecific antibody, human IgG1, lambda)
heavy: not shown
light: B5 light
notes: HC linker long, LC linker short; also called DVD-Ig DVD526
B7: DVD446 (bispecific antibody, human IgG1, kappa)
heavy: not shown
light: DIQMTQSPSSLSASVGDRVTITCRASQVIRRSLAWYQQKPGKAPKLLIYAASNLASGVPSRFSGSGSGTDFTLTISSLQPEDFATYYCQQSNTSPLTFGQGTKVEIKRTVAAPDIVMTQSPDSLAVSLGERATISCRASESVDNYGISFMKWFQQKPGQPPKLLIYAASNQGSGVPDRFSGSGSGTDFTLTISSLQAEDVAVYYCQQSKEVPWTFGGGTKVEIKRTVAAPSVFIFPPSDEQLKSGTASVVCLLNNFYPREAKVQWKVDNALQSGNSQESVTEQDSKDSTYSLSSTLTLSKADYEKHKVYACEVTHQGLSSPVTKSFNRGEC
notes: DVD-Ig; N-term; VD AB071 (VEGF), C-term; VD AB069 (DLL4); HC linker short, LC linker short; also called DVD446H; DVD446L
B8: DVD450 (bispecific antibody, human IgG1, kappa)
heavy: not shown
light: DIQMTQSPSSLSASVGDRVTITCRASQDVSTAVAWYQQKPGKAPKLLIYSASFLYSGVPSRFSGSGSGTDFTLTISSLQPEDFATYYCQQSYTTPPTFGQGTKVEIKRTVAAPSVFIFPPDIVMTQSPDSLAVSLGERATISCRASESVDNYGISFMKWFQQKPGQPPKLLIYAASNQGSGVPDRFSGSGSGTDFTLTISSLQAEDVAVYYCQQSKEVPWTFGGGTKVEIKRTVAAPSVFIFPPSDEQLKSGTASVVCLLNNFYPREAKVQWKVDNALQSGNSQESVTEQDSKDSTYSLSSTLTLSKADYEKHKVYACEVTHQGLSSPVTKSFNRGEC
notes: HC linker long, LC linker long; also called DVD-Ig DVD450
B9: DVD462 (bispecific antibody, human IgG1, kappa)
heavy: not shown
light: B8 light
notes: HC linker short, LC linker long; also called DVD-Ig DVD462
B10: DVD480 (bispecific antibody, human IgG1, kappa)
heavy: not shown
light: DIQMTQSPSSLSASVGDRVTITCRASQVIRRSLAWYQQKPGKAPKLLIYAASNLASGVPSRFSGSGSGTDFTLTISSLQPEDFATYYCQQSNTSPLTFGQGTKVEIKRTVAAPDIQMTQSPSSLSASVGDRVTITCRASQDVSTAVAWYQQKPGKAPKLLIYSASFLYSGVPSRFSGSGSGTDFTLTISSLQPEDFATTYYCQQSYTGTVTFGQGTKVEIKRTVAAPSVFIFPPSDEQLKSGTASVVCLLNNFYPREAKVQWKVDNALQSGNSQESVTEQDSKDSTYSLSSTLTLSKADYEKHKVYACEVTHQGLSSPVTKSFNRGEC
notes: DVD-Ig; N-term; VD AB071 (VEGF), C-term; VD AB015 (DLL4); HC linker long, LC linker short; also called DVD480H; DVD480L
B11: DVD456 (bispecific antibody, human IgG1, kappa)
heavy: not shown
light: DIQMTQSPSSLSASVGDRVTITCRASQDVSTAVAWYQQKPGKAPKLLIYSASFLYSGVPSRFSGSGSGTDFTLTISSLQPEDFATYYCQQSYTTPPTFGQGTKVEIKRTVAAPDIVMTQSPDSLAVSLGERATISCRASESVDNYGISFMKWFQQKPGQPPKLLIYAASNQGSGVPDRFSGSGSGTDFTLTISSLQAEDVAVYYCQQSKEVPWTFGGGTKVEIKRTVAAPSVFIFPPSDEQLKSGTASVVCLLNNFYPREAKVQWKVDNALQSGNSQESVTEQDSKDSTYSLSSTLTLSKADYEKHKVYACEVTHQGLSSPVTKSFNRGEC
notes: HC linker long, LC linker short; also called DVD-Ig DVD456
B12: DVD496 (bispecific antibody, human IgG1, kappa)
heavy: not shown
light: DIQMTQSPSSLSASVGDRVTITCRASQDVSTAVAWYQQKPGKAPKLLIYSASFLYSGVPSRFSGSGSGTDFTLTISSLQPEDFATYYCQQSYTTPPTFGQGTKVEIKRTVAAPSVFIFPPDIQMTQSSSYLSVSLGGRVTITCKASDHINNWLAWYQQKPGNAPRLLISGATSLETGVPSRFSGSGSGKDYTLSITSLQTEDVATYYCQQYWSIPLTFGAGTKLELKRTVAAPSVFIFPPSDEQLKSGTASVVCLLNNFYPREAKVQWKVDNALQSGNSQESVTEQDSKDSTYSLSSTLTLSKADYEKHKVYACEVTHQGLSSPVTKSFNRGEC
notes: HC linker long, LC linker long; also called DVD-Ig DVD496
B13: DVD508 (bispecific antibody, human IgG1, kappa)
heavy: not shown
light: B12 light
notes: HC linker short, LC linker long; also called DVD-Ig DVD508
B14: DVD520 (bispecific antibody, human IgG1, kappa, lambda)
heavy: not shown
light: DIQMTQSPSSLSASVGDRVTITCRASQDVSTAVAWYQQKPGKAPKLLIYSASFLYSGVPSRFSGSGSGTDFTLTISSLQPEDFATYYCQQSYTTPPTFGQGTKVEIKRTVAAPSVFIFPPQAVVTQESALTTSPGETVTLTCRSSTGAVTTSNYANWVQEKPDHLFTGLIGGTNNRAPGVPARFSGSLIGDKAALTITGAQTEDEAIYFCALWYSNHWVFGGGTKLTVLGQPKAAPSVTLFPPSSEELQANKATLVCLISDFYPGAVTVAWKADSSPVKAGVETTTPSKQSNNKYAASSYLSLTPEQWKSHRSYSCQVTHEGSTVEKTVAPTECS
notes: HC linker long, LC linker long; also called DVD-Ig DVD520
B15: DVD532 (bispecific antibody, human IgG1, kappa, lambda)
heavy: not shown
light: B14 light
notes: HC linker short, LC linker long; also called DVD-Ig DVD532

Columns and labels:
VEGF = biological target: T1, VEGF (UniProt P15692-4 27-191); assay: SPR (Biacore), DVD-Ig captured, VEGF in solution
T1 construct: Bought reagent; also called vascular endothelial growth factor

DLL4 ECD His tag = biological target: T2, DLL4 ECD His tag (UniProt Q9NR61 27-529, limits assumed); assay: SPR (Biacore), DVD-Ig captured, DLL4 as analyte
T2 construct: extracellular domain; also called DLL ECD His tag

T1 sequence (P15692 other isoform, or with tags, fused parts or gaps limits assumed): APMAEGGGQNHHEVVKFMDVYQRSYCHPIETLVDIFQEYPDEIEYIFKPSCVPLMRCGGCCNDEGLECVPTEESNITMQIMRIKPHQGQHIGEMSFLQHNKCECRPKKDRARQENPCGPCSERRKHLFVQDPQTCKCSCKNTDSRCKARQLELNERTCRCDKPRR

Row | Binder | Kd (VEGF) | Kd (DLL4 ECD His tag) | koff (DLL4 ECD His tag) | kon (DLL4 ECD His tag) | koff (VEGF) | kon (VEGF)
1 | B1 | 0.00144 nM | – | – | – | – | –
2 | B2 | 0.371 nM | – | – | – | – | –
3 | B3 | – | 0.528 nM | 7.7e-05 s⁻¹ | 146000 M⁻¹ s⁻¹ | – | –
4 | B4 | – | 0.807 nM | 7.43e-05 s⁻¹ | 92100 M⁻¹ s⁻¹ | – | –
5 | B5 | – | 3.48 nM | 0.000432 s⁻¹ | 124000 M⁻¹ s⁻¹ | – | –
6 | B6 | – | 5.55 nM | 0.000629 s⁻¹ | 113000 M⁻¹ s⁻¹ | – | –
7 | B7 | 0.000297 nM | – | – | – | 3.62e-08 s⁻¹ | 122000 M⁻¹ s⁻¹
8 | B8 | – | 7.41 nM | 0.000251 s⁻¹ | 33800 M⁻¹ s⁻¹ | – | –
9 | B9 | – | 2.98 nM | 0.00025 s⁻¹ | 83900 M⁻¹ s⁻¹ | – | –
10 | B10 | 0.302 nM | – | – | – | 4.91e-05 s⁻¹ | 162000 M⁻¹ s⁻¹
11 | B11 | – | 1.66 nM | 0.000174 s⁻¹ | 104000 M⁻¹ s⁻¹ | – | –
12 | B12 | – | 1.44 nM | 0.000172 s⁻¹ | 120000 M⁻¹ s⁻¹ | – | –
13 | B13 | – | 1.7 nM | 0.000167 s⁻¹ | 98400 M⁻¹ s⁻¹ | – | –
14 | B14 | – | 3.3 nM | 0.000408 s⁻¹ | 124000 M⁻¹ s⁻¹ | – | –
15 | B15 | – | 6.85 nM | 0.00081 s⁻¹ | 118000 M⁻¹ s⁻¹ | – | –
